Reference: publication PMC7289862, “Real-time tracking reveals catalytic roles for the two DNA binding sites of Rad51” (Nature Communications, 2019)
Positions count from the first letter of the chain named.

Assays:
[1] = molecular target: T1, Rad51-L2 (Schizosaccharomyces pombe, UniProt P36601 1-365, V295A); experiment: fluorescence anisotropy; 1 mM ATP, 3 mM MgCl2; Hill n 1.80; 30 mM HEPES-KOH pH 7.5, 100 mM KCl, 3 mM MgCl2, 1 mM DTT, 5% glycerol, 1 mM ATP, 25 C (EMSA: 2 mM ATP, 37 C, then 0.2% glutaraldehyde); conditions: protein: recombinant; label: 5' TAMRA on strand 1; blunt
T1 sequence: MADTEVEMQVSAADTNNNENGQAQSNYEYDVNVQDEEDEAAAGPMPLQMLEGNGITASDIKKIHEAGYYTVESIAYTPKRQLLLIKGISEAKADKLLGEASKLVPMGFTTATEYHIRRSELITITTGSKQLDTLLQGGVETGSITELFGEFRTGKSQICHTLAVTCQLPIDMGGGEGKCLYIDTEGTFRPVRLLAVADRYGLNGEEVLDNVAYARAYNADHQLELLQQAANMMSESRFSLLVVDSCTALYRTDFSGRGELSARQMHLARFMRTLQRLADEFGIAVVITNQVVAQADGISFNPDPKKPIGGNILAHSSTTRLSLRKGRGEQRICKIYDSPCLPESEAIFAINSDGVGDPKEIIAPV

[2] = molecular target: T2, Rad51 wild-type (Schizosaccharomyces pombe, UniProt P36601 1-365); experiment: fluorescence anisotropy; 1 mM ATP, 3 mM MgCl2; Hill n 1.99; main text prints 2.79 uM; 30 mM HEPES-KOH pH 7.5, 100 mM KCl, 3 mM MgCl2, 1 mM DTT, 5% glycerol, 1 mM ATP, 25 C (EMSA: 2 mM ATP, 37 C, then 0.2% glutaraldehyde); conditions: protein: recombinant; label: 5' TAMRA on strand 1; blunt
T2 sequence: T1 sequence with A295V

B1: [TAMRA]16A(-)_72 bp duplex (dsDNA)
DNA 1: AAATGAACATAAAGTAAATAAGTATAAGGATAATACAAAATAAGTAAATGAATAAACATAGAAAATAAAGTA
DNA 2: TACTTTATTTTCTATGTTTATTCATTTACTTATTTTGTATTATCCTTATACTTATTTACTTTATGTTCATTT
In the case of B1, the Kd [1] is reported as 3.52 ± 0.31 µM and the Kd [2] is reported as 2.61 ± 0.2 µM.
